Two molecules from article PMC6609762 can be followed below.

The target of experiment [1] is SK2bALAB49‐Pm complex (streptokinase of group A Streptococcus ALAB49 with plasmin) (group A Streptococcus (GAS) strain ALAB49 | human).
Experiment [2] deals with SKC2 (2b_(ALAB)‐2aG88‐2b_(ALAB))‐Pm complex (group A Streptococcus (GAS) strain ALAB49 | group G Streptococcus (GGS) strain G88 | human).
The target of experiment [3] is SK2aG88‐Pm complex (streptokinase of group G Streptococcus G88 with plasmin) (group G Streptococcus (GGS) strain G88 | human).
Experiment [4] deals with SKC1 (2aG88‐2b_(ALAB)‐2aG88)‐Pm complex (group G Streptococcus (GGS) strain G88 | group A Streptococcus (GAS) strain ALAB49 | human).
For experiment [5], the target named is SK2bALAB49‐Pm complex (streptokinase of group A Streptococcus ALAB49 with plasmin) (group A Streptococcus (GAS) strain ALAB49 | human). The source holds these as a separate data set.
The target in experiment [6] is SKC2 (2b_(ALAB)‐2aG88‐2b_(ALAB))‐Pm complex (group A Streptococcus (GAS) strain ALAB49 | group G Streptococcus (GGS) strain G88 | human). This is another data set of the same source.
For experiment [7], the target named is SK2aG88‐Pm complex (streptokinase of group G Streptococcus G88 with plasmin) (group G Streptococcus (GGS) strain G88 | human). This is another data set of the same source.
Experiment [8] has as its target SKC1 (2aG88‐2b_(ALAB)‐2aG88)‐Pm complex (group G Streptococcus (GGS) strain G88 | group A Streptococcus (GAS) strain ALAB49 | human). The source holds these as a separate data set.

Consider plasminogen (natural protein), for which the K m of the proteolytic activity (substrate affinity): 100 nM SK, Pg 0.3–5.0 µM as substrate, 0.1 mM S2251, absorbance at 405 nM was 7.92 µM in experiment [1], 3.45 µM in experiment [2], 0.77 µM in experiment [3] and 2.05 µM in experiment [4].

B1: alpha 2‐antiplasmin (natural protein)
chain: NQEQVSPLTLLKLGNQEPGGQTALKSPPGVCSRDPTPEQTHRLARAMMAFTADLFSLVAQTSTCPNLILSPLSVALALSHLALGAQNHTLQRLQQVLHAGSGPCLPHLLSRLCQDLGPGAFRLAARMYLQKGFPIKEDFLEQSEQLFGAKPVSLTGKQEDDLANINQWVKEATEGKIQEFLSGLPEDTVLLLLNAIHFQGFWRNKFDPSLTQRDSFHLDEQFTVPVEMMQARTYPLRWFLLEQPEIQVAHFPFKNNMSFVVLVPTHFEWNVSQVLANLSWDTLHPPLVWERPTKVRLPKLYLKHQMDLVATLSQLGLQELFQAPDLRGISEQSLVVSGVQHQSTLELSEVGVEAAAATSIAMSRMSLSSFSVNRPFLFFIFEDTTGLPLFVGSVRNPNPSAPRELKEQQDSPGNKDFLQSLKGFPRGDKLFGPDLKLVPPMEEDYPQFGSPK
For B1, the retained activity (S‐2251 hydrolysis) of the SK‐Pm complex (20 nM) after 15 min with α2‐AP 100–400 nM, relative to no inhibitor; value at 400 nM in experiment [5] is 50%; in experiment [6], 80%; in experiment [7], 80%; in experiment [8], 50%.
